We go through 2 molecules from US10836808B2, “Binding-triggered transcriptional switches and methods of use thereof” (The Regents of the University of California, priority 2015, dated 2020).

Experiment [1] has as its system gamma secretase. As to the kind of experiment: Chimeric Notch (anti-CD19 scFv/tTA) receiver cell GFP reporter with CD19 sender cells, with or without DAPT. The experiment is classed as cell-based, mouse. The conditions noted are these: 1 mM DAPT, in the presence of CD19 sender cells. The source says: DAPT is a gamma secretase inhibitor. The data are expressed as GFP^+“receiver” cells.

Experiment [2] has as its system HCT116 colon cancer cells. The experiment can be described thus: Sensitivity of cancer cell lines to recombinant TRAIL. The experiment is classed as cell-based. The settings on record: 1 to 200 ng/mL, 24 hours. On the procedure: (§1) The cells were then harvested and stained with the live/dead stain, SYTOX Blue (Thermo Scientific #S34857) and the fraction of dead cells was determined by flow cytometry on a BD LSR II.

Experiment [3] relates to K562 cells. The description is as above. It counts as cell-based. The conditions noted are these: 1 to 200 ng/mL, 24 hours. On the procedure: as §1

Take `C[C@H](NC(=O)Cc1cc(F)cc(F)c1)C(=O)NC(C(=O)OC(C)(C)C)c1ccccc1` (some centres unmarked) [DAPT]: the “GFP+ receiver cells” value in experiment [1] was “at control, untreated levels”.

B1: soluble TRAIL: an inducer of apoptosis and a cancer therapeutic (protein, UniProt P50591 39-281, looked up)
extracellular domain: TNELKQMQDKYSKSGIACFLKEDDSYWDPNDEESMNSPCWQVKWQLRQLVRKMILRTSEETISTVQEKQQNISPLVRERGPQRVAAHITGTRGRSNTLSSPNSKNEKALGRKINSWESSRSGHSFLSNLHLRNGELVIHEKGFYYIYSQTYFRFQEEIKENTKNDKQMVQYIYKYTSYPDPILLMKSARNSCWSKDAEYGLYSIYQGGIFELKENDRIFVSVTNEHLIDMDHEASFFGAFLVG
modifications: extracellular domain
notes: an inducer of apoptosis and a cancer therapeutic
On to B1, for which the “killing of cancer cell line” value in experiment [2] is given as “effective at killing”; in experiment [2] (listed as recombinant TRAIL), “sensitive to low level TRAIL treatment”. Besides, the “induction of apoptosis in cancer cell line” value in experiment [3] is reported as “does not induce apoptosis even at high doses”; in experiment [3] (listed as recombinant TRAIL), “insensitive to TRAIL treatment”.
